Experimental data taken from patent US20140235820A1, “METHODS AND COMPOSITIONS FOR MODULATING THE Wnt PATHWAY” (Genentech, Inc., priority 2010, published 2014).
Substitutions are numbered along the chain they refer to. Numbers in names are those of the source. Values belong to the molecule of their own block, whether it stands above or below them.

Experiments:
LRP6 E1E2 = biological target: T1, LRP6 E1E2 (Homo sapiens, UniProt O75581); assay: Biolayer interferometry binding to LRP6 E1E2
T1 construct: construct E1E2-amino acids A20-E631 of LPR6; made in house; host or cells: Tni insect cells (baculovirus, secreted)
T1 sequence (O75581 20-631): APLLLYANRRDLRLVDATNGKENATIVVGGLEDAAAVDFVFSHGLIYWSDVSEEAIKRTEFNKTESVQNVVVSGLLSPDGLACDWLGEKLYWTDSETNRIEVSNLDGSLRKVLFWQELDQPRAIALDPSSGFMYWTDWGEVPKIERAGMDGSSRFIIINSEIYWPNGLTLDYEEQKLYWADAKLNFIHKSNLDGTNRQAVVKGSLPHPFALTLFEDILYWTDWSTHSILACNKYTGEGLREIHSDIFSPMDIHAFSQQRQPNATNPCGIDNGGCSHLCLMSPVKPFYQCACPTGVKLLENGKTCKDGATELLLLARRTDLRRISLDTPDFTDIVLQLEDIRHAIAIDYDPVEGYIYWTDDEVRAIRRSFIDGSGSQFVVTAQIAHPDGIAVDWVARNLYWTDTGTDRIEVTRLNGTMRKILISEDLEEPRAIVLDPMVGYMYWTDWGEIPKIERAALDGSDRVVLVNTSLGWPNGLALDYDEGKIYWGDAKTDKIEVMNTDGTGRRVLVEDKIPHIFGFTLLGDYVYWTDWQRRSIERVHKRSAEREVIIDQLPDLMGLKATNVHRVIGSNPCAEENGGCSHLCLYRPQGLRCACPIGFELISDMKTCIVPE
Experimental: (§1) Binding kinetics were measured by biolayer interferometry using an Octet Red instrument (ForteBio) as previously described (11). Streptavidin (SA) biosensors were loaded with biotinylated hLRP6 in 50 mMTris, pH 8, 300 mM NaCl, 5% (v/v) glycerol, and 0.05% (w/v) Triton X-100. The loaded biosensors were washed in the same buffer before carrying out association and dissociation measurements for the indicated times. The Kd of each interaction was determined using steady state-analysis through the Octet Red software v6.3. Each reported value represents an average of three or more experiments at different concentrations, with a fitted experimental curve for which the square of the correlation coefficient (R^2) is above 0.96.
(§2) The interaction of the different Dkks and sclerostin with various domains of LRP6 was measured using a biolayer interferometry assay (11). Purified receptors contained individual β-propeller-EGF-like units (E1, E2, or E4), two β-propellers (E1E2 or E3E4), or four β-propellers (E1E4))—as follows:
(§3) Human LRP6: construct E1E4-amino acids A20-Q1253 of LPR6; construct E1E2-amino acids A20-E631 of LPR6; construct E3E4 amino acids E631-Q1253 of LPR6; construct E1-amino acids A20-D325 of LPR6; construct E2-amino acids […]-E631 of LPR6; construct E4-T933-Q1253. The individual LRP6 β-propeller E3 could not be expressed.

LRP6 E1E4 = biological target: T2, LRP6 E1E4 (Homo sapiens, UniProt O75581); assay: Biolayer interferometry binding to LRP6 E1E4
T2 construct: construct E1E4-amino acids A20-Q1253 of LPR6; made in house; host or cells: Tni insect cells (baculovirus, secreted)
T2 sequence (O75581 20-1253): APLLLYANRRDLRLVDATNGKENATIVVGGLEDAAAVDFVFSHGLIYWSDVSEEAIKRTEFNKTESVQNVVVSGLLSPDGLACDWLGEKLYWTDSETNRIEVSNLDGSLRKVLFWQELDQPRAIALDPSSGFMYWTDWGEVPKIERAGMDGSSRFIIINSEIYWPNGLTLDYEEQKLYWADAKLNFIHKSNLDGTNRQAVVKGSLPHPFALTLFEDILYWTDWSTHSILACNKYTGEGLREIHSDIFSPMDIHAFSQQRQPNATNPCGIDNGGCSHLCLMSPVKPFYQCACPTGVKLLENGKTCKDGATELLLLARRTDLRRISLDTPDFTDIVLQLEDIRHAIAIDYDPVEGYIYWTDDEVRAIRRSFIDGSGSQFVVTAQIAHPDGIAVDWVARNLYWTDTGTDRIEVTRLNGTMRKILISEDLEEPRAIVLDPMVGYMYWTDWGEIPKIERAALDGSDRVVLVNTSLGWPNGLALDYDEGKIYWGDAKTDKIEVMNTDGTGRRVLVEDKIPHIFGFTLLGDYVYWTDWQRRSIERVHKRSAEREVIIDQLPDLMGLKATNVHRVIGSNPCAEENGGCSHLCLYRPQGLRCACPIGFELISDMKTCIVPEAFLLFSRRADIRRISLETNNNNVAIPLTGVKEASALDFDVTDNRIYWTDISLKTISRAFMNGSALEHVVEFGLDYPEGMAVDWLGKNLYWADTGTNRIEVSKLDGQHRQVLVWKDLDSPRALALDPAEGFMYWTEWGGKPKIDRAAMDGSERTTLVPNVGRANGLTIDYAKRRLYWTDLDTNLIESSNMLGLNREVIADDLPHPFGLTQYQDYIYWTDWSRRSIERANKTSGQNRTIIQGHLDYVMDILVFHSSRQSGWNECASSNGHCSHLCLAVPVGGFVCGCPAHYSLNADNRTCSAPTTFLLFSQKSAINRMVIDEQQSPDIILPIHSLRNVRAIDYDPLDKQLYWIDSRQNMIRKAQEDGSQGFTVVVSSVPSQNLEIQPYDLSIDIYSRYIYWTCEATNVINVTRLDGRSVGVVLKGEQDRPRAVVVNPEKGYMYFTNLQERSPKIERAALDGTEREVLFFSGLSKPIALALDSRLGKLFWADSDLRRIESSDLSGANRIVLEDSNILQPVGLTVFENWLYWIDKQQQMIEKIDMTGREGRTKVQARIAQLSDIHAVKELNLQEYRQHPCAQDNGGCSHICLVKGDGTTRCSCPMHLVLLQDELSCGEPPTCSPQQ
Experimental: as §1, §2, §3

LRP6 E1 = biological target: T3, LRP6 E1 (Homo sapiens, UniProt O75581); assay: Biolayer interferometry binding to LRP6 E1
T3 construct: construct E1-amino acids A20-D325 of LPR6; made in house; host or cells: Tni insect cells (baculovirus, secreted)
T3 sequence (O75581 20-325): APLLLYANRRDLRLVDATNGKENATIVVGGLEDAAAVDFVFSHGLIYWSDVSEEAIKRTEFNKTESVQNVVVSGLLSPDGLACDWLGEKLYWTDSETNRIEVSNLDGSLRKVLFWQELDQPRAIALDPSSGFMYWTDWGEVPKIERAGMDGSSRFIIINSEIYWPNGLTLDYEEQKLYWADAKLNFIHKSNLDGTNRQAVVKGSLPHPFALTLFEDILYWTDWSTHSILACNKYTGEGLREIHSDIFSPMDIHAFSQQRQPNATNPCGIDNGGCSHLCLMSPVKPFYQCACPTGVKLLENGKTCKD
Experimental: as §1, §2, §3

- binding to LRP6 E1E2 (in words) (LRP6 E1E2): binds
- binding to LRP6 E1E4 (in words) (LRP6 E1E4): binds
- binding to LRP6 E1 (in words) (LRP6 E1): binds
Molecule: sclerostin: Sclerostin protein, Wnt pathway inhibitor, expressed in insect cells (LPNAIGR)

- Kd (LRP6 E1E2; steady state, read-out: affinity for LRP6 E1E2): 22 nM
- binding to LRP6 E1 (in words) (LRP6 E1): bind with high affinity
Molecule: Dkk1: Dickkopf 1 protein, Wnt pathway inhibitor, expressed in insect cells (NSNAIKN)

- binding to LRP6 E1E2 (in words) (LRP6 E1E2): affect binding
- binding to LRP6 E1E4 (in words) (LRP6 E1E4): retain binding
B1: Dkk1 Ile42Glu (ligand, human, UniProt O94907 32-266, looked up)
chain: TLNSVLNSNAEKNLPPPLGGAAGHPGSAVSAAPGILYPGGNKYQTIDNYQPYPCAEDEECGTDEYCASPTRGGDAGVQICLACRKRRKRCMRHAMCCPGNYCKNGICVSSDQNHFRGEIEETITESFGNDHSTLDGYSRRTTLSSKMYHTKGQEGSVCLRSSDCASGLCCARHFWSKICKPVLKEGQVCTKHRRKGSHGLEIFQRCYCGEGLSCRIQKDHHQASNSSRLHTCQRH
notes: also called Dkk1 I42E

- binding to LRP6 E1E4 (in words) (LRP6 E1E4): retain binding
B2: Dkk1 K211E (ligand, human, UniProt O94907 32-266, looked up)
chain: B1 chain with E11I, K180E
notes: also called Dkk1 Lys211Glu
